Experimental data published in patent US20190359687A1 (Bayer, published 2019).

Tests used:
[1] = target: T1, human glycophorin A on human red blood cells (human, UniProt P02724 20-150); test: partition to human RBC, human HemA plasma, 30 min
T1 construct: whole, on cells; also called human GPA; huGPA
T1 sequence (looked up): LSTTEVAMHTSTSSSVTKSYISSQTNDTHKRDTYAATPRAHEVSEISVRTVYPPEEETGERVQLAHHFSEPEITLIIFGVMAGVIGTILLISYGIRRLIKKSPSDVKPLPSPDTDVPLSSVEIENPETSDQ
Description: (§1) The supernatant containing plasma, platelets and white blood cells was discarded and the red blood cell pellet was resuspended in 10 pellet volumes of PBS (50 mM Phosphate buffer, pH7.4, 150 mM NaCl). The red blood cells were then pelleted by slow speed centrifugation and the red blood cells re-suspended in 10 volumes of PBS. This washing step was repeated 4 more times and the red blood cells finally resuspended in a volume of plasma from Hemophilia patients with less than 1% of normal levels of FVIII (GeorgeKing Bio-Medical, Overland Park, Kans.) to generate a total volume equal to the initial blood volume such that the RBC density was equal to that of normal whole blood. BDD and RBC targeted FVIII molecules were then spiked into RBC suspension in HemA plasma at 1 IU/mL, and incubated at room temperature for 2-3 hours with gentle rotation. […] An additional control was performed in which BDD or RBC targeted FVIII molecules were added at 11U/ml into the same human hemophilia A plasma and incubated for 5 minutes and 180 mins. These samples were used to determine the input FVIII activity in the presence of plasma which was used to calculate the percentage of the molecule that was bound to RBC. All plasma samples were then assayed together for FVIII activity using the Coatest SP assay (DiaPharma, Columbus, Ohio). The assay was performed following the manufacturer's instructions in a 96-well plate format. […] The plate was incubated at 37° C. for 10 minutes with shaking between each reagent addition. […] The amount of FVIII activity in the plasma reflects the amount of unbound FVIII. The FVIII activity of the same molecule spiked in to Hemophilia A plasma alone (no RBC) and incubated for 5 minutes was normalized to 100%.

[2] = target: T2, Cynomolgus monkey glycophorin A on Cynomolgus monkey red blood cells (Cynomolgus monkey); test: partition to Cyno RBC, human HemA plasma, 120 min;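 also: FVIII fusion spiked at 1 IU/mL into RBC suspension at whole-blood density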
T2 construct: whole, on cells; also called Cyno GPA; Cyno RBC
Description: (§2) To evaluate partition to cynomolgus monkey or human red blood cells, whole blood was draw from Cynomolgus monkey or normal human volunteers in to anticoagulant with 4% sodium citrate (Sigma, St Louis, Mo.). The red blood cells were purified by layering the whole blood on to ficoll followed by low speed centrifugation. The supernatant containing plasma, platelets and white blood cells was discarded and the red blood cell pellet was resuspended in 10 pellet volumes of PBS (50 mM Phosphate buffer, pH7.4, 150 mM NaCl). The red blood cells were then pelleted by slow speed centrifugation and the red blood cells re-suspended in 10 volumes of PBS. This washing step was repeated 4 more times and the red blood cells finally resuspended in a volume of plasma from Hemophilia patients with less than 1% of normal levels of FVIII (GeorgeKing Bio-Medical, Overland Park, Kans.) to generate a total volume equal to the initial blood volume such that the RBC density was equal to that of normal whole blood. BDD and RBC targeted FVIII molecules were then spiked into RBC suspension in HemA plasma at 1 IU/mL, and incubated at room temperature for 2-3 hours with gentle rotation. […] An additional control was performed in which BDD or RBC targeted FVIII molecules were added at 11U/ml into the same human hemophilia A plasma and incubated for 5 minutes and 180 mins. These samples were used to determine the input FVIII activity in the presence of plasma which was used to calculate the percentage of the molecule that was bound to RBC. All plasma samples were then assayed together for FVIII activity using the Coatest SP assay (DiaPharma, Columbus, Ohio). The assay was performed following the manufacturer's instructions in a 96-well plate format. […] The plate was incubated at 37° C. for 10 minutes with shaking between each reagent addition.

[3] = target: T2, Cynomolgus monkey glycophorin A on …; test: partition to Cyno RBC, human HemA plasma, 30 min;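 also: FVIII fusion spiked at 1 IU/mL into RBC suspension at whole-blood density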
Description: as §2

[4] = target: T1, human glycophorin A on human red blood …; test: partition to human RBC, human HemA plasma, 60 min
Description: as §1

[5] = target: T1, human glycophorin A on human red blood …; test: partition to human RBC, human HemA plasma, 120 min
Description: as §1

[6] = target: T1, human glycophorin A on human red blood …; test: partition to human RBC, human HemA plasma, 15 min
Description: as §1

[7] = target: T2, Cynomolgus monkey glycophorin A on …; test: partition to Cyno RBC, human HemA plasma, 1 min;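 also: FVIII fusion spiked at 1 IU/mL into RBC suspension at whole-blood density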
Description: as §2

[8] = target: T2, Cynomolgus monkey glycophorin A on …; test: partition to Cyno RBC, human HemA plasma, 15 min;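 also: FVIII fusion spiked at 1 IU/mL into RBC suspension at whole-blood density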
[9] = target: T1, human glycophorin A on human red blood …; test: partition to human RBC, human HemA plasma, 5 min
Description: as §1

[10] = target: T1, human glycophorin A on human red blood …; test: partition to human RBC, human HemA plasma, 1 min
[11] = target: T2, Cynomolgus monkey glycophorin A on …; test: partition to Cyno RBC, human HemA plasma, 60 min;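 also: FVIII fusion spiked at 1 IU/mL into RBC suspension at whole-blood density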
Description: as §2

[12] = target: T1, human glycophorin A on human red blood …; test: partition to human RBC, human HemA plasma, 120 min; remark: listed apart in the source
Description: as §1

[13] = target: T2, Cynomolgus monkey glycophorin A on …; test: partition to Cyno RBC, human HemA plasma, 5 min;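 also: FVIII fusion spiked at 1 IU/mL into RBC suspension at whole-blood density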
Description: as §2

| Binder | percentage bound to human RBC [1] [%] | % bound to Cyno RBC [2] [%] | % bound to Cyno RBC [3] [%] | percentage bound to human RBC [4] [%] | percentage bound to human RBC [5] [%] | percentage bound to human RBC [6] [%] | % bound to Cyno RBC [7] [%] | % bound to Cyno RBC [8] [%] | percentage bound to human RBC [9] [%] | percentage bound to human RBC [10] [%] | % bound to Cyno RBC [11] [%] | percentage bound to human RBC [12] [%] | % bound to Cyno RBC [13] [%] |
| --- | --- | --- | --- | --- | --- | --- | --- | --- | --- | --- | --- | --- | --- |
| TPP-9900 FVIII-scFv fusion protein (other) DIQLTQSPSFLSASVGDRVTITCRASSSVRYIYWFQQKPGKAPKLLIYATSFRQSGVPSRFSGSGSGTEYTLTISSLQPEDFATYYCHQRNSFPYTFGQGTKLEIKGGGGSGGGGSGGGGSGGGGSEVQLVQSGAEVKKPGASVKVSCKASGYTFTTYAIHWVRQAPGQGLEWMGYINPSSGYTRYNPKFKGRVTMTRDKSTSTAYMELRSLRSDDTAVYYCWTGTRDYWGQGTTVTVSSGGGSGGGGSGLVPRGSGGGSGGGGSGATRRYYLGAVELSWDYMQSDLGELPVDARFPPRVPKSFPFNTSVVYKKTLFVEFTDHLFNIAKPRPPWMGLLGPTIQAEVYDTVVITLKNMASHPVSLHAVGVSYWKASEGAEYDDQTSQREKEDDKVFPGGSHTYVWQVLKENGPMASDPLCLTYSYLSHVDLVKDLNSGLIGALLVCREGSLAKEKTQTLHKFILLFAVFDEGKSWHSETKNSLMQDRDAASARAWPKMHTVNGYVNRSLPGLIGCHRKSVYWHVIGMGTTPEVHSIFLEGHTFLVRNHRQASLEISPITFLTAQTLLMDLGQFLLFCHISSHQHDGMEAYVKVDSCPEEPQLRMKNNEEAEDYDDDLTDSEMDVVRFDDDNSPSFIQIRSVAKKHPKTWVHYIAAEEEDWDYAPLVLAPDDRSYKSQYLNNGPQRIGRKYKKVRFMAYTDETFKTREAIQHESGILGPLLYGEVGDTLLIIFKNQASRPYNIYPHGITDVRPLYSRRLPKGVKHLKDFPILPGEIFKYKWTVTVEDGPTKSDPRCLTRYYSSFVNMERDLASGLIGPLLICYKESVDQRGNQIMSDKRNVILFSVFDENRSWYLTENIQRFLPNPAGVQLEDPEFQASNIMHSINGYVFDSLQLSVCLHEVAYWYILSIGAQTDFLSVFFSGYTFKHKMVYEDTLTLFPFSGETVFMSMENPGLWILGCHNSDFRNRGMTALLKVSSCDKNTGDYYEDSYEDISAYLLSKNNAIEPRSFSQNDENQSPRSFQKKTRHYFIAAVERLWDYGMSSSPHVLRNRAQSGSVPQFKKVVFQEFTDGSFTQPLYRGELNEHLGLLGPYIRAEVEDNIMVTFRNQASRPYSFYSSLISYEEDQRQGAEPRKNFVKPNETKTYFWKVQHHMAPTKDEFDCKAWAYFSDVDLEKDVHSGLIGPLLVCHTNTLNPAHGRQVTVQEFALFFTIFDETKSWYFTENMERNCRAPCNIQMEDPTFKENYRFHAINGYIMDTLPGLVMAQDQRIRWYLLSMGSNENIHSIHFSGHVFTVRKKEEYKMALYNLYPGVFETVEMLPSKAGIWRVECLIGEHLHAGMSTLFLVYSNKCQTPLGMASGHIRDFQITASGQYGQWAPKLARLHYSGSINAWSTKEPFSWIKVDLLAPMIIHGIKTQGARQKFSSLYISQFIIMYSLDGKKWQTYRGNSTGTLMVFFGNVDSSGIKHNIFNPPIIARYIRLHPTHYSIRSTLRMELMGCDLNSCSMPLGMESKAISDAQITASSYFTNMFATWSPSKARLHLQGRSNAWRPQVNNPKEWLQVDFQKTMKVTGVTTQGVKSLLTSMYVKEFLISSSQDGHQWTLFFQNGKVKVFQGNQDSFTPVVNSLDPPLLTRYLRIHPQSWVHQIALRMEVLGCEAQDLYGGGSGGGGSGLVPRGSGGGSGGGGSGDIQLTQSPSFLSASVGDRVTITCRASSSVRYIYWFQQKPGKAPKLLIYATSFRQSGVPSRFSGSGSGTEYTLTISSLQPEDFATYYCHQRNSFPYTFGQGTKLEIKGGGGSGGGGSGGGGSGGGGSEVQLVQSGAEVKKPGASVKVSCKASGYTFTTYAIHWVRQAPGQGLEWMGYINPSSGYTRYNPKFKGRVTMTRDKSTSTAYMELRSLRSDDTAVYYCWTGTRDYWGQGTTVTVSS | 57.7 | 55.1 | 43.2 | 66.9 | 71.8 | 52 | 30.9 | 40.6 | 34.4 | 19.3 | 52.9 | 71.8 | 38.2 |
| TPP-9976 FVIII-scFv fusion protein (other, also called PPB 7998) ATRRYYLGAVELSWDYMQSDLGELPVDARFPPRVPKSFPFNTSVVYKKTLFVEFTDHLFNIAKPRPPWMGLLGPTIQAEVYDTVVITLKNMASHPVSLHAVGVSYWKASEGAEYDDQTSQREKEDDKVFPGGSHTYVWQVLKENGPMASDPLCLTYSYLSHVDLVKDLNSGLIGALLVCREGSLAKEKTQTLHKFILLFAVFDEGKSWHSETKNSLMQDRDAASARAWPKMHTVNGYVNRSLPGLIGCHRKSVYWHVIGMGTTPEVHSIFLEGHTFLVRNHRQASLEISPITFLTAQTLLMDLGQFLLFCHISSHQHDGMEAYVKVDSCPEEPQLRMKNNEEAEDYDDDLTDSEMDVVRFDDDNSPSFIQIRSVAKKHPKTWVHYIAAEEEDWDYAPLVLAPDDRSYKSQYLNNGPQRIGRKYKKVRFMAYTDETFKTREAIQHESGILGPLLYGEVGDTLLIIFKNQASRPYNIYPHGITDVRPLYSRRLPKGVKHLKDFPILPGEIFKYKWTVTVEDGPTKSDPRCLTRYYSSFVNMERDLASGLIGPLLICYKESVDQRGNQIMSDKRNVILFSVFDENRSWYLTENIQRFLPNPAGVQLEDPEFQASNIMHSINGYVFDSLQLSVCLHEVAYWYILSIGAQTDFLSVFFSGYTFKHKMVYEDTLTLFPFSGETVFMSMENPGLWILGCHNSDFRNRGMTALLKVSSCDKNTGDYYEDSYEDISAYLLSKNNAIEPRSFSQNGGGGSTGGTGGSSGGGTGSGGGGTGGSGGTDIQLTQSPSFLSASVGDRVTITCRASSSVRYIYWFQQKPGKAPKLLIYATSFRQSGVPSRFSGSGSGTEYTLTISSLQPEDFATYYCHQRNSFPYTFGQGTKLEIKGGGGSGGGGSGGGGSGGGGSEVQLVQSGAEVKKPGASVKVSCKASGYTFTTYAIHWVRQAPGQGLEWMGYINPSSGYTRYNPKFKGRVTMTRDKSTSTAYMELRSLRSDDTAVYYCWTGTRDYWGQGTTVTVSSGGGGDIQLTQSPSFLSASVGDRVTITCRASSSVRYIYWFQQKPGKAPKLLIYATSFRQSGVPSRFSGSGSGTEYTLTISSLQPEDFATYYCHQRNSFPYTFGQGTKLEIKGGGGSGGGGSGGGGSGGGGSEVQLVQSGAEVKKPGASVKVSCKASGYTFTTYAIHWVRQAPGQGLEWMGYINPSSGYTRYNPKFKGRVTMTRDKSTSTAYMELRSLRSDDTAVYYCWTGTRDYWGQGTTVTVSSGGGGDENQSPRSFQKKTRHYFIAAVERLWDYGMSSSPHVLRNRAQSGSVPQFKKVVFQEFTDGSFTQPLYRGELNEHLGLLGPYIRAEVEDNIMVTFRNQASRPYSFYSSLISYEEDQRQGAEPRKNFVKPNETKTYFWKVQHHMAPTKDEFDCKAWAYFSDVDLEKDVHSGLIGPLLVCHTNTLNPAHGRQVTVQEFALFFTIFDETKSWYFTENMERNCRAPCNIQMEDPTFKENYRFHAINGYIMDTLPGLVMAQDQRIRWYLLSMGSNENIHSIHFSGHVFTVRKKEEYKMALYNLYPGVFETVEMLPSKAGIWRVECLIGEHLHAGMSTLFLVYSNKCQTPLGMASGHIRDFQITASGQYGQWAPKLARLHYSGSINAWSTKEPFSWIKVDLLAPMIIHGIKTQGARQKFSSLYISQFIIMYSLDGKKWQTYRGNSTGTLMVFFGNVDSSGIKHNIFNPPIIARYIRLHPTHYSIRSTLRMELMGCDLNSCSMPLGMESKAISDAQITASSYFTNMFATWSPSKARLHLQGRSNAWRPQVNNPKEWLQVDFQKTMKVTGVTTQGVKSLLTSMYVKEFLISSSQDGHQWTLFFQNGKVKVFQGNQDSFTPVVNSLDPPLLTRYLRIHPQSWVHQIALRMEVLGCEAQDLY | 90.4 | 86.8 | 78.1 | 93.5 | 95.2 | 86.6 | 53.4 | 75.6 | 74.3 | 55.2 | 84.5 | 95.2 | 65.7 |
